Test results reported in patent US20100256338A1 (Hoffmann-La Roche, published 2010).

Tests used:
[1] = target: T1, IGF-1R (soluble analyte in SPR) (human, UniProt P08069 31-932, limits assumed); assay: SPR (Biacore T100), antibody captured by anti-human IgG, IGF-1R as analyte, 25 C
T1 construct: also called human IGF1-Receptor

EGFR-ECD = target: T2, EGFR-ECD (human, UniProt P00533 25-645); assay: SPR (Biacore T100), antibody captured by anti-human IgG, EGFR-ECD as analyte, 25 C
T2 construct: extracellular domain; also called human EGF-Receptor

B1: scFab-XGFR2_2720 (bispecific antibody)
chain 1: not shown
chain 2: DIQMTQSPSSLSASVGDRVTITCRASQGINNYLNWYQQKPGKAPKRLIYNTNNLQTGVPSRFSGSGSGTEFTLTISSLQPEDFATYYCLQHNSFPTFGQGTKLEIKRTVAAPSVFIFPPSDEQLKSGTASVVCLLNNFYPREAKVQWKVDNALQSGNSQESVTEQDSKDSTYSLSSTLTLSKADYEKHKVYACEVTHQGLSSPVTKSFNRGEC
Question: With B1 as the binder, how does the Kd [1] read?
Answer: 11 nM

Question: And the Kd (EGFR-ECD)?
Answer: 0.5 nM

B2: humanized <EGFR>ICR62 (antibody, V domains shown)
VH: QVQLVQSGAEVKKPGSSVKVSCKASGFTFTDYKIHWVRQAPGQGLEWMGYFNPNSGYSTYAQKFQGRVTITADKSTSTAYMELSSLRSEDTAVYYCARLSPGGYYVMDAWGQGTTVTVSS
VL: DIQMTQSPSSLSASVGDRVTITCRASQGINNYLNWYQQKPGKAPKRLIYNTNNLQTGVPSRFSGSGSGTEFTLTISSLQPEDFATYYCLQHNSFPTFGQGTKLEIKR
notes: Humanized rat anti-EGFR antibody, 'wildtype' IgG parent; also called humanized rat anti-EGFR antibody <EGFR>ICR62
Question: For B2, which Kd (EGFR-ECD) is on record?
Answer: 0.5 nM
